Results from article PMC2722949 (Journal of molecular biology, 2009).
Where no end group is shown, it is not given here. [ ]: non-standard residue; d: D form. pY = N[C@@H](Cc1ccc(OP(=O)(O)O)cc1)C(=O)O

Key:
Test in all cases: NMR titration
[1] = biological target: Itk SH2 domain, wild type (mouse (the paper calls its residue numbers 'mouse numbering'))
[2] = biological target: Itk SH2 domain E308A/K309A double mutant (mouse (the paper calls its residue numbers 'mouse numbering'))
[3] = biological target: Btk SH2 domain, wild type (UniProt Q06187 270-387)
Chain of Btk SH2 domain, wild type (Q06187 270-387): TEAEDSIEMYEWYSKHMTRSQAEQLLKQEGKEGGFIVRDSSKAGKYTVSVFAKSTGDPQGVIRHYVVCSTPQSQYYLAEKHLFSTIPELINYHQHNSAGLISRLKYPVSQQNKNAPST

[4] = biological target: Btk SH2 domain S371P (UniProt Q06187 270-387, S371P)
Chain of Btk SH2 domain S371P (Q06187 270-387 S371P): as the sequence (Q06187 270-387) above, with S102P counted along it

[5] = biological target: Btk SH2 domain H364D (UniProt Q06187 270-387, H364D)
Chain of Btk SH2 domain H364D (Q06187 270-387 H364D): as the sequence (Q06187 270-387) above, with H95D counted along it

B1: phospho-SLP76 peptide (ADpYEPP) (peptide)
peptide: AD[pY]EPP
For B1, which Kd [1] is on record?
Its Kd is 380 µM.

What about the Kd [2] of the same binder?
Its Kd is 480 µM.

B2: Btk SH2 phospho-peptide ligand (GDGpYEEISPLLL) (peptide)
peptide: GDG[pY]EEISPLLL
For B2, which Kd [3] is on record?
Its Kd is 450 ± 40 µM.

And the Kd [4]?
Its Kd is 600 ± 110 µM.

What about the Kd [5] of the same binder?
Its Kd is 500 ± 200 µM.
